Assay results: the supplement of paper PMC7877785
± gives the uncertainty stated by the source.

Experiment: self-splicing fitness, log relative to wild type (ln ratio); higher = more splicing; Tetrahymena group I intron in knt gene, E. coli kanamycin selection, DiMSum; sequences stand for … in CUCUCU…GGAGGGAAAAGUUAUCAGGCAUGCACCUGGUAGCUAGUCUUUAAACCAAUAGAUUGCAUCGGUUUAAAAGGCAAGACCGUCAAAUUGCGGGAAAGGGGUCAACAGCCGUUCAGUACCAAGUCUCAGGGGAAACUUUGAGAUGGCCUUGCAAAGGGUAUGGUAAUAAGCUGACGGACAUGGUCCUAACCACGCAGCCAAGUCCUAAGUCAACAGAUCUUCUGUUGAUAUGGAUGCAGUUCACAGACUAAAUGUCGGUCGGGGAAGAUGUAUUCUUCUCAUAAGAUAUAGUCGGACCUCUCCUUAAUGGGAGCUAGCGGAUGAAGUGAUGCAACACUGGAGCCGCUGGGAACUAAUUUGUAUGCGAAAGUAUAUUGAUUAGUUUUGGAGUACUCGUGGUCG
Method in brief: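 DiMSum derived fitness as the error-weighted combination of fold changes across replicates, kanamycin versus no kanamycin, normalised to wild type. E. coli BL21(DE3) held the library, which randomised all eight P1ex-region intron nucleotides within the knt kanamycin-resistance gene on pET-22b(+). Six replicate transformations grew overnight at 37°C or 30°C on LB agar with or without 25 μg/mL kanamycin, also containing 100 μg/mL carbenicillin, 50 μM IPTG and 0.2% rhamnose, and pooled colonies were amplicon-sequenced on an Illumina HiSeq 2500.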

Row | Sequence | self-splicing fitness (ln) (30 °C) | self-splicing fitness (ln) (37 °C)
1 | UGUAAGCAAUAUUACGUUCG | 0.188 ± 0.095 | 0.33 ± 0.12
2 | AGUUAGCAAUAUUACGGUGU | -3.11 ± 0.21 | -1.73 ± 0.21
3 | UAUUAGCAAUAUUACGGUAA | -2.24 ± 0.26 | -1.54 ± 0.23
4 | ACUCAGCAAUAUUACGCUAC | -3.42 ± 0.27 | -2.63 ± 0.23
5 | AAACAGCAAUAUUACGAAAG | -2.21 ± 0.13 | -1.57 ± 0.18
6 | ACUUAGCAAUAUUACGAAAG | -2.69 ± 0.19 | -0.697 ± 0.17
7 | UUCAAGCAAUAUUACGUAGU | -3.6 ± 0.22 | -1.61 ± 0.2
8 | AAUUAGCAAUAUUACGUAAG | -1.82 ± 0.12 | -0.936 ± 0.13
9 | AGAGAGCAAUAUUACGACCA |  | -0.796 ± 0.48
10 | UAUGAGCAAUAUUACGCAGU | -1.98 ± 0.24 | -0.419 ± 0.21
11 | CACUAGCAAUAUUACGAUCU | -3.56 ± 0.19 | -2.18 ± 0.18
12 | CGCCAGCAAUAUUACGAAAU | -4.66 ± 0.37 | -2.69 ± 0.24
13 | GAAAAGCAAUAUUACGUCGA | -1.14 ± 0.088 | -0.0848 ± 0.12
14 | GAGUAGCAAUAUUACGCCCA | -1.78 ± 0.39 | -1.39 ± 0.24
15 | AGCAAGCAAUAUUACGGAGG | -4.63 ± 0.46 | -2.28 ± 0.33
16 | CGCGAGCAAUAUUACGGCCA |  | -1.68 ± 0.39
17 | ACUCAGCAAUAUUACGCCUU | -0.619 ± 0.053 | 0.491 ± 0.067
18 | GGCGAGCAAUAUUACGAGCA | -1.44 ± 0.25 | -0.374 ± 0.28
19 | AGCAAGCAAUAUUACGCAUG | -3.32 ± 0.16 | -2.74 ± 0.2
20 | GAUUAGCAAUAUUACGCGCC | -1.37 ± 0.38 | -1.2 ± 0.34
21 | UUCCAGCAAUAUUACGCCAG | -1.93 ± 0.15 | -0.95 ± 0.15
22 | CGUCAGCAAUAUUACGAGUU | -3.3 ± 0.22 | -1.84 ± 0.22
23 | CCCAAGCAAUAUUACGAUAU | -3.29 ± 0.19 | -3.25 ± 0.15
24 | UAUCAGCAAUAUUACGUCAA | -0.73 ± 0.092 | -0.445 ± 0.11
25 | GCGUAGCAAUAUUACGAUCA | -0.167 ± 0.14 | 0.0769 ± 0.14

Row | Sequence | self-splicing fitness (ln) (30 °C) | self-splicing fitness (ln) (37 °C)
26 | CACAAGCAAUAUUACGUAUA | -2.66 ± 0.13 | -2.67 ± 0.16
27 | CGGUAGCAAUAUUACGAGUA |  | -1.32 ± 0.4
28 | GGUGAGCAAUAUUACGGCGG | -3.44 ± 0.23 | -1.73 ± 0.35
29 | UGUGAGCAAUAUUACGGUCG | -0.638 ± 0.094 | -0.935 ± 0.12
30 | GAACAGCAAUAUUACGUGUG | -1.35 ± 0.054 | -0.967 ± 0.069
31 | CGAGAGCAAUAUUACGGAGC | -2.84 ± 0.35 | 
32 | GACCAGCAAUAUUACGGCCA | -0.323 ± 0.077 | 0.208 ± 0.13
33 | UAUCAGCAAUAUUACGAUUU | 0.142 ± 0.055 | 0.207 ± 0.07
34 | CGGCAGCAAUAUUACGCUGA | -3.18 ± 0.17 | -2.17 ± 0.23
35 | CGAAAGCAAUAUUACGUAUA | -3.52 ± 0.17 | -2.99 ± 0.21
36 | GGAAAGCAAUAUUACGCGCU | -3.27 ± 0.38 | -1.37 ± 0.26
37 | ACACAGCAAUAUUACGUUUU | -3.42 ± 0.11 | -2.57 ± 0.14
38 | AGCAAGCAAUAUUACGGAGA | -3.25 ± 0.17 | -2.35 ± 0.19
39 | AUCGAGCAAUAUUACGAUAG | -3.68 ± 0.22 | -3.23 ± 0.2
40 | CUCGAGCAAUAUUACGAGGA | -1.94 ± 0.26 | 
41 | UAAUAGCAAUAUUACGCUGA | -2.81 ± 0.28 | -1.23 ± 0.15
42 | CUAAAGCAAUAUUACGUGGU | -3.41 ± 0.12 | -2.73 ± 0.15
43 | UCAUAGCAAUAUUACGCUAU | -2.88 ± 0.39 | -2.08 ± 0.47
44 | AGUCAGCAAUAUUACGUACG | -0.473 ± 0.08 | -0.0481 ± 0.1
45 | GUAAAGCAAUAUUACGAAUC | -1.71 ± 0.14 | -0.902 ± 0.14
46 | UUGCAGCAAUAUUACGGACU | -1.3 ± 0.18 | -1.7 ± 0.29
47 | CGUAAGCAAUAUUACGAGCG | -1.02 ± 0.11 | -2.67 ± 0.24
48 | AGAAAGCAAUAUUACGGCUC | -1.28 ± 0.091 | -0.338 ± 0.12
49 | CGUCAGCAAUAUUACGAGUC |  | -1.18 ± 0.18
50 | GGCAAGCAAUAUUACGGCCC | -3.62 ± 0.36 | -1.85 ± 0.3

Row | Sequence | self-splicing fitness (ln) (30 °C) | self-splicing fitness (ln) (37 °C)
51 | GUGUAGCAAUAUUACGUGAC | -1.35 ± 0.11 | -1.29 ± 0.19
52 | CGGCAGCAAUAUUACGCAGC | -3.98 ± 0.34 | -1.71 ± 0.2
53 | AGCAAGCAAUAUUACGCGCU |  | -2.2 ± 0.32
54 | CCUAAGCAAUAUUACGGUCU | -3.89 ± 0.31 | -2.94 ± 0.34
55 | AUUGAGCAAUAUUACGUGUA | -3.52 ± 0.21 | -2.69 ± 0.24
56 | CCACAGCAAUAUUACGGAAA | -3.47 ± 0.23 | -3.54 ± 0.29
57 | AGCUAGCAAUAUUACGAGUA | -1.65 ± 0.15 | -0.618 ± 0.12
58 | CAAGAGCAAUAUUACGGGGU | -4.66 ± 0.2 | -2.61 ± 0.19
59 | CGCCAGCAAUAUUACGGCCU | -0.959 ± 0.061 | 0.409 ± 0.072
60 | UUUGAGCAAUAUUACGCAAU | -3.33 ± 0.48 | -1.5 ± 0.46
61 | CUUUAGCAAUAUUACGCUAC | -2.83 ± 0.35 | 
62 | CGACAGCAAUAUUACGCACA | -0.429 ± 0.17 | 0.097 ± 0.17
63 | AUCCAGCAAUAUUACGGUUA | -0.475 ± 0.05 | 0.0679 ± 0.054
64 | GCGGAGCAAUAUUACGUUAU | -3.7 ± 0.19 | -2.81 ± 0.15
65 | AGCAAGCAAUAUUACGCACG | -1.44 ± 0.097 | -0.144 ± 0.13
66 | AACCAGCAAUAUUACGACAU | -0.243 ± 0.01 | 0.152 ± 0.031
67 | GCCCAGCAAUAUUACGCGUG | -3.68 ± 0.13 | -2.41 ± 0.12
68 | ACGCAGCAAUAUUACGUCUU | -1.36 ± 0.065 | -1.27 ± 0.083
69 | UAGCAGCAAUAUUACGAGCU | -1.5 ± 0.13 | -0.893 ± 0.14
70 | GCCUAGCAAUAUUACGACCU | -1.35 ± 0.23 | -1.02 ± 0.27
71 | UAUUAGCAAUAUUACGGCCC | -1.78 ± 0.5 | 
72 | GUUUAGCAAUAUUACGCUGG | -2.55 ± 0.25 | -0.944 ± 0.26
73 | GGCUAGCAAUAUUACGUAAU | -0.265 ± 0.1 | 0.283 ± 0.12
74 | CCUAAGCAAUAUUACGUCGC | -2.21 ± 0.16 | -1.85 ± 0.2
75 | GACUAGCAAUAUUACGCGUA | -0.78 ± 0.11 | -0.344 ± 0.097

Row | Sequence | self-splicing fitness (ln) (30 °C) | self-splicing fitness (ln) (37 °C)
76 | AACGAGCAAUAUUACGGACC | -2.49 ± 0.15 | -1.55 ± 0.22
77 | UAAGAGCAAUAUUACGCCAC | -2.07 ± 0.22 | -1.59 ± 0.29
78 | AGUUAGCAAUAUUACGAGAG | -3.75 ± 0.29 | -2.24 ± 0.22
79 | CCGCAGCAAUAUUACGCUUU | -3.86 ± 0.18 | -2.97 ± 0.18
80 | UUCAAGCAAUAUUACGGCAC | -2.66 ± 0.4 | -1.11 ± 0.33
81 | AGAUAGCAAUAUUACGAAGA |  | -1.12 ± 0.39
82 | AUGAAGCAAUAUUACGGUAC | -1.71 ± 0.14 | -0.139 ± 0.13
83 | UGAAAGCAAUAUUACGUCAC | -3.83 ± 0.47 | -2.2 ± 0.27
84 | UGUAAGCAAUAUUACGGCCA | -0.0492 ± 0.076 | -0.0953 ± 0.12
85 | CUGAAGCAAUAUUACGCAGC | -3.2 ± 0.4 | -1.77 ± 0.45
86 | CGUAAGCAAUAUUACGAGGC | -3.73 ± 0.32 | -1.99 ± 0.29
87 | UAUAAGCAAUAUUACGACGG | -0.907 ± 0.12 | 0.474 ± 0.18
88 | GAGGAGCAAUAUUACGGCGC | -1.62 ± 0.34 | -0.697 ± 0.37
89 | ACUGAGCAAUAUUACGUCCC | -3.06 ± 0.39 | 
90 | UCCCAGCAAUAUUACGGAUC | -2.71 ± 0.13 | -1.64 ± 0.14
91 | GACCAGCAAUAUUACGAGUG | -0.669 ± 0.055 | -0.33 ± 0.084
92 | UGAUAGCAAUAUUACGCAAG |  | -2.3 ± 0.26
93 | GGAUAGCAAUAUUACGGCAG |  | -2.18 ± 0.22
94 | AAUGAGCAAUAUUACGCAGG | -2.85 ± 0.14 | -3.18 ± 0.29
95 | GGCGAGCAAUAUUACGCAGU | -1.29 ± 0.43 | -0.76 ± 0.39
96 | GCAGAGCAAUAUUACGGCAC | -1.64 ± 0.17 | -1.42 ± 0.26
97 | AUUGAGCAAUAUUACGUAAG | -2.78 ± 0.13 | -1.82 ± 0.13
98 | GAAGAGCAAUAUUACGUAAC | -1.31 ± 0.12 | -1.54 ± 0.21
99 | UCAGAGCAAUAUUACGAUAG | -4.05 ± 0.39 | -2.38 ± 0.39
